Experimental data as given in article PMC10279719 (Nature Communications, 2023).
Non-standard residues stand in square brackets, D forms with d. pY = N[C@@H](Cc1ccc(OP(=O)(O)O)cc1)C(=O)O

B1: PEAK1 1106-1121-pY1107 peptide (Ac-T(pY)SNLGQSRAAMIPPK-NH2) (peptide)
peptide: Ac-T[pY]SNLGQSRAAMIPPK-NH2
notes: human PEAK1 residues 1106-1121; source: synthetic peptide, bought: Mimotopes (95% purity)
B2: PEAK1 1150-1162 proline-rich motif peptide (Ac-PTPPPLPKKMIIR-NH2) (peptide)
peptide: Ac-PTPPPLPKKMIIR-NH2
notes: source: synthetic peptide, bought: Mimotopes (95% purity)
B3: full length CrkII, monomer (CrkII^FL monomer) (natural protein, human, UniProt P46108-1 1-304, looked up)
chain: MAGNFDSEERSSWYWGRLSRQEAVALLQGQRHGVFLVRDSSTSPGDYVLSVSENSRVSHYIINSSGPRPPVPPSPAQPPPGVSPSRLRIGDQEFDSLPALLEFYKIHYLDTTTLIEPVSRSRQGSGVILRQEEAEYVRALFDFNGNDEEDLPFKKGDILRIRDKPEEQWWNAEDSEGKRGMIPVPYVEKYRPASASVSALIGGNQEGSHPQPLGGPEPGPYAQPSVNTPLPNLQNGPIYARVIQKRVPNAYDKTALALEVGELVKVTKINVSGQWEGECNGKRGHFPFTHVRLLDQQNPDEDFS
modifications: biotin (EZ-Link NHS-PEG4-Biotin, 1:1 molar ratio) where it was immobilised (a1)
notes: full length human CrkII, printed as UniProt P46108-1, residues 1-330
B4: full length CrkII, dimer (CrkII^FL dimer) (natural protein, human, UniProt P46108-1 1-304, looked up)
chain: B3 chain
modifications: biotin (EZ-Link NHS-PEG4-Biotin, 1:1 molar ratio) where it was immobilised (a1)
notes: as for B3
B5: PEAK1^IDR1 (human PEAK1 residues 1082–1746) (domain or fragment, UniProt Q9H792 1082-1746, looked up)
chain: LPELEREDGKEDISDPMDPNPCSATYSNLGQSRAAMIPPKQPRQPKGAVDDAIAFGGKTDQEAPNASQPTPPPLPKKMIIRANTEPISKDLQKSMESSLCVMANPTYDIDPNWDASSAGSSISYELKGLDIESYDSLERPLRKERPVPSAANSISSLTTLSIKDRFSNSMESLSSRRGPSCRQGRGIQKPQRQALYRGLENREEVVGKIRSLHTDALKKLAVKCEDLFMAGQKDQLRFGVDSWSDFRLTSDKPCCEAGDAVYYTASYAKDPLNNYAVKICKSKAKESQQYYHSLAVRQSLAVHFNIQQDCGHFLAEVPNRLLPWEDPDDPEKDEDDMEETEEDAKGETDGKNPKPCSEAASSQKENQGVMSKKQRSHVVVITREVPCLTVADFVRDSLAQHGKSPDLYERQVCLLLLQLCSGLEHLKPYHVTHCDLRLENLLLVHYQPGGTAQGFGPAEPSPTSSYPTRLIVSNFSQAKQKSHLVDPEILRDQSRLAPEIITATQYKKCDEFQTGILIYEMLHLPNPFDENPELKEREYTRADLPRIPFRSPYSRGLQQLASCLLNPNPSERILISDAKGILQCLLWGPREDLFQTFTACPSLVQRNTLLQNWLDIKRTLLMIKFAEKSLDREGGISLEDWLCAQYLAFATTDSLSCIVKILQHR
modifications: biotin (EZ-Link NHS-PEG4-Biotin) where immobilised for SPR; no phosphorylation observed at the tandem 14-3-3 motif
notes: human PEAK1 residues 1082-1746 (part of the IDR with Y1107 and the tandem site, SHED and PsK domains); the His tag is TEV-cleavable; also called PEAK1^IDR1 dimer; not shown: His tag, N-terminal, kept
B6: PEAK2 809-821 proline-rich motif peptide (Ac-QPPPLPQKKIVSR-NH2) (peptide)
peptide: Ac-QPPPLPQKKIVSR-NH2
notes: human PEAK2 (SgK223, PRAG1) residues 809-821; source: synthetic peptide, bought: Mimotopes (95% purity)
B7: CrkII SH2-NSH3 construct lacking the CSH3 domain (CrkIIΔCSH3) (domain or fragment, human, UniProt P46108-1 1-228, looked up)
chain: MAGNFDSEERSSWYWGRLSRQEAVALLQGQRHGVFLVRDSSTSPGDYVLSVSENSRVSHYIINSSGPRPPVPPSPAQPPPGVSPSRLRIGDQEFDSLPALLEFYKIHYLDTTTLIEPVSRSRQGSGVILRQEEAEYVRALFDFNGNDEEDLPFKKGDILRIRDKPEEQWWNAEDSEGKRGMIPVPYVEKYRPASASVSALIGGNQEGSHPQPLGGPEPGPYAQPSVNT
notes: CrkII, human, residues 1-228
B8: CrkII^∆CSH3 (SH2-NSH3, residues 1–228) (domain or fragment, human, UniProt P46108-1 1-228, looked up)
chain: B7 chain
notes: human CrkII residues 1-228, lacking the CSH3 domain
B9: PEAK SH2-pY consensus peptide (Ac-T(pY)SNLGQ-NH2) (peptide)
peptide: Ac-T[pY]SNLGQ-NH2
notes: also called consensus pY peptide; SH2-pY peptide; source: synthetic peptide, bought: Mimotopes (95% purity)
B10: CrkII SH2 domain (CrkIISH2) (domain or fragment, human, UniProt P46108-1 6-120, looked up)
chain: DSEERSSWYWGRLSRQEAVALLQGQRHGVFLVRDSSTSPGDYVLSVSENSRVSHYIINSSGPRPPVPPSPAQPPPGVSPSRLRIGDQEFDSLPALLEFYKIHYLDTTTLIEPVSR
modifications: biotin (EZ-Link NHS-PEG4-Biotin) in the SPR experiment only
notes: CrkII, human, UniProt P46108-1, residues 6-120; Purifies as monomer with a proportion of dimer
B11: CrkII SH2 domain (CrkII^SH2, residues 6–120) (domain or fragment, human, UniProt P46108-1 6-120, looked up)
chain: B10 chain
modifications: biotin (EZ-Link NHS-PEG4-Biotin) where immobilised for SPR
notes: human CrkII residues 6-120, SH2 domain

Legend:
[1] = molecular target: T1, CrkII SH2 domain (CrkII^SH2, residues 6-120) (human, UniProt P46108-1 6-120, biotin (EZ-Link NHS-PEG4-Biotin, 1:1 molar ratio) where it was immobilised (a1)); assay: SPR; biotinylated adapter proteins captured with a biotin CAPture kit, pY peptides as analytes; Biacore 8K+, 20 °C, HBS-TP (20 mM HEPES pH 7.4, 150 mM NaCl, 1 mM TCEP, 0.005% Tween-P20) with 2% DMSO; 1 M NaCl regeneration; steady state, 1:1 model; conditions: both partners purified
T1 construct: human CrkII SH2 domain, UniProt P46108-1, residues 6-120; The His tag is TEV-cleavable and was cleaved 'when required'

[2] = molecular target: B4; assay: as above; conditions: both partners purified
[3] = molecular target: B3; assay: as above; conditions: both partners purified
[4] = molecular target: T2, CrkII N-terminal SH3 domain (CrkII^NSH3, residues 134-191) (human, UniProt P46108-1 134-191); assay: SPR; CrkII NSH3 amine coupled to a CM5 chip, PRM peptides as analytes (100 µM-100 nM); Biacore S200, 20 °C, HBS-TP; steady state, 1:1 model; conditions: both partners purified
T2 construct: human CrkII NSH3 domain, UniProt P46108-1, residues 134-191; Amine coupled to a CM5 chip in a2; analyte in a4; in the syringe in ITC

[5] = molecular target: T3, PEAK2^IDR1 (residues 802-1406), from insect cells, phosphorylated by Src (human, UniProt Q86YV5 802-1406, phosphorylated with Src kinase, sites not stated; phosphorylation of the tandem site 14-3-3 motif (RAASSP) found by proteomic analysis; biotin (EZ-Link NHS-PEG4-Biotin, 1:1 molar ratio)); assay: SPR; biotinylated PEAK proteins (with or without Src phosphorylation) captured with a biotin CAPture kit; Grb2 FL, Grb2 SH2, CrkII SH2, CrkII FL monomer or dimer as analytes; Biacore 8K+, 20 °C, HBS-TP with NaCl raised to 500 mM; 1 M NaCl regeneration; steady state; conditions: both partners purified
T3 construct: human PEAK2 (SgK223, PRAG1), UniProt Q86YV5, residues 802-1406; also called PEAK2-IDR1 (+ Src phosphorylation); source: Sf21 insect cells, purified; phosphorylated in vitro with recombinant Src kinase domain
T3 sequence (looked up): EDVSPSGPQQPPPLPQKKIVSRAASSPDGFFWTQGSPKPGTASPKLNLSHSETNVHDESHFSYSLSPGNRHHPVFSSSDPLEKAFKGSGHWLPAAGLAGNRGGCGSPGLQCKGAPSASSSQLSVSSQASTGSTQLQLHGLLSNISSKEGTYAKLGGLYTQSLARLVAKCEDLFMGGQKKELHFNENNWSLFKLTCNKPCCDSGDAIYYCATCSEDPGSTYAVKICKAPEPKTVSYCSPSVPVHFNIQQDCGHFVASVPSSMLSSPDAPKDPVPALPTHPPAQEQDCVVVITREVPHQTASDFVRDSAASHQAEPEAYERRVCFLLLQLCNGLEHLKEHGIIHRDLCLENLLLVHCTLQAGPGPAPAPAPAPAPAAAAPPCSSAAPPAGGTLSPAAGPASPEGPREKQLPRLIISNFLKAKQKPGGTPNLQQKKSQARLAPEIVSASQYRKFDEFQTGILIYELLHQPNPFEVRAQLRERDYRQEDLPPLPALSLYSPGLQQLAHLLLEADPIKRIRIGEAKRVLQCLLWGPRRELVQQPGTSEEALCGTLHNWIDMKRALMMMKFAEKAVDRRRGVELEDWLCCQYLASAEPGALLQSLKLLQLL

[6] = molecular target: T4, PEAK1^IDR1 (residues 1082-1746), from insect cells, phosphorylated by Src (human, UniProt Q9H792 1082-1746, phosphotyrosine at Y1107 (by Src in vitro, shown by MS/MS); other Src sites not stated; biotin (EZ-Link NHS-PEG4-Biotin, 1:1 molar ratio)); assay: as above; conditions: both partners purified
T4 construct: human PEAK1, UniProt Q9H792, residues 1082-1746; also called PEAK1-IDR1 (+ Src phosphorylation); source: Sf21 insect cells, purified; phosphorylated in vitro with recombinant Src kinase domain
T4 sequence (looked up): B5 chain

[7] = molecular target: the molecule itself; assay: SEC; single purified proteins on Superdex 200 (purification and re-runs), 20 mM HEPES pH 7.5–8.5, 150 mM NaCl, 1 mM TCEP; oligomeric state
[8] = molecular target: the molecule itself; assay: SEC; S75 16/600 profile of the purified CrkII constructs, with SDS-PAGE of fractions

With B1 the Kd [1] was 3200 nM, the Kd [2] was 3100 nM and the Kd [3] was 3500 nM.

For B2, the Kd [4] was 900 nM.

For B3, the Kd [5] was 2120 nM and the Kd [6] was 1500 nM.

With B4 the Kd [5] was 1380 nM and the Kd [6] was 1490 nM.

B5: binds [7].

Binder B6 has a Kd [4] of 2400 nM.

B7: binds [8].

B8: binds [7].

Binder B9 has a Kd [1] of 8800 nM, a Kd [2] of 12700 nM and a Kd [3] of 14500 nM.

B10: binds [8].

B11: binds [7].
